From the supplement of paper PMC9112550, “Optimization of the antimicrobial peptide Bac7 by deep mutational scanning” (BMC Biology, 2022)

The sequences below were run on Escherichia coli TOP10 (assay: shrunken log2 fold change of peptide-encoding DNA abundance (4.5 h post-induction vs induction); higher = less antimicrobial activity (less host growth inhibition)). Conditions: time post-induction: 4.5 h; library: site-saturation at positions 5, 18, 19, 20.
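Further: peptides expressed intracellularly from a pBAD plasmid library in pooled LB shake-flask culture, induced with 0.3% L-arabinose, DNA abundance read by NGS, three biological replicates, DESeq2 with apeglm shrinkage.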

In order of rising “shrunken log2 fold change” value:
1. RRIRYRPPRLPRPRPRPSTQPRP  -0.641
2. RRIRHRPPRLPRPRPRPKGMPRP  -0.448
3. RRIRWRPPRLPRPRPRPHPFPRP  -0.42
4. RRIRLRPPRLPRPRPRPCMLPRP  -0.398
5. RRIRIRPPRLPRPRPRPYKAPRP  -0.361
6. RRIRIRPPRLPRPRPRPWFGPRP  -0.348
7. RRIRHRPPRLPRPRPRPAFNPRP  -0.313
8. RRIRERPPRLPRPRPRPFGHPRP  -0.224
9. RRIRARPPRLPRPRPRPFLEPRP  -0.219
10. RRIRTRPPRLPRPRPRPWFKPRP  -0.214
11. RRIRPRPPRLPRPRPRPCNGPRP  -0.202
12. RRIRDRPPRLPRPRPRPHSHPRP  -0.19
13. RRIRIRPPRLPRPRPRPHANPRP  -0.181
14. RRIRDRPPRLPRPRPRPQDEPRP  -0.166
15. RRIRERPPRLPRPRPRPHNSPRP  -0.156
16. RRIRCRPPRLPRPRPRPKHVPRP  -0.155
17. RRIRTRPPRLPRPRPRPKAFPRP  -0.149
18. RRIRGRPPRLPRPRPRPNHTPRP  -0.144
19. RRIRNRPPRLPRPRPRPSGWPRP  -0.137
20. RRIRLRPPRLPRPRPRPLQMPRP  -0.135
21. RRIRIRPPRLPRPRPRPYRYPRP  -0.127
22. RRIRPRPPRLPRPRPRPENNPRP  -0.119
23. RRIRDRPPRLPRPRPRPTVIPRP  -0.118
24. RRIRTRPPRLPRPRPRPVSFPRP  -0.114
25. RRIRIRPPRLPRPRPRPLWHPRP  -0.105
26. RRIRERPPRLPRPRPRPTIFPRP  -0.0972
27. RRIRWRPPRLPRPRPRPYELPRP  -0.0904
28. RRIRWRPPRLPRPRPRPWDYPRP  -0.0902
29. RRIRFRPPRLPRPRPRPVWKPRP  -0.0844
30. RRIRERPPRLPRPRPRPQQVPRP  -0.0841
31. RRIRMRPPRLPRPRPRPIGYPRP  -0.0789
32. RRIRQRPPRLPRPRPRPNYCPRP  -0.0656
33. RRIRARPPRLPRPRPRPINEPRP  -0.0644
34. RRIRARPPRLPRPRPRPKMFPRP  -0.0487
35. RRIRYRPPRLPRPRPRPHRQPRP  -0.0423
36. RRIRGRPPRLPRPRPRPAYGPRP  -0.0354
37. RRIRHRPPRLPRPRPRPGLNPRP  -0.0123
38. RRIRLRPPRLPRPRPRPECLPRP  -0.00237
39. RRIRMRPPRLPRPRPRPMSPPRP  0.00473
40. RRIRYRPPRLPRPRPRPTDDPRP  0.0131
41. RRIRHRPPRLPRPRPRPERTPRP  0.0203
42. RRIRRRPPRLPRPRPRPYKGPRP  0.0251
43. RRIRMRPPRLPRPRPRPHCVPRP  0.0437
44. RRIRFRPPRLPRPRPRPCRAPRP  0.0454
45. RRIRMRPPRLPRPRPRPGVHPRP  0.0493
46. RRIRQRPPRLPRPRPRPHQMPRP  0.0681
47. RRIRKRPPRLPRPRPRPQAQPRP  0.0703
48. RRIRGRPPRLPRPRPRPTYHPRP  0.0704
49. RRIRARPPRLPRPRPRPVEYPRP  0.0729
50. RRIRWRPPRLPRPRPRPQIGPRP  0.0807
51. RRIRSRPPRLPRPRPRPGQGPRP  0.0895
52. RRIRERPPRLPRPRPRPKVQPRP  0.105
53. RRIRSRPPRLPRPRPRPQLGPRP  0.115
54. RRIRPRPPRLPRPRPRPKLMPRP  0.121
55. RRIRFRPPRLPRPRPRPKQPPRP  0.137
56. RRIRCRPPRLPRPRPRPHKSPRP  0.139
57. RRIRWRPPRLPRPRPRPVLTPRP  0.147
58. RRIRGRPPRLPRPRPRPFFPPRP  0.154
59. RRIRPRPPRLPRPRPRPFWPPRP  0.199
60. RRIRMRPPRLPRPRPRPVAWPRP  0.213
61. RRIRARPPRLPRPRPRPQRQPRP  0.24
62. RRIRVRPPRLPRPRPRPPTLPRP  0.252
63. RRIRSRPPRLPRPRPRPLGCPRP  0.285
64. RRIRMRPPRLPRPRPRPKSPPRP  0.325
65. RRIRTRPPRLPRPRPRPRAKPRP  0.346
66. RRIRCRPPRLPRPRPRPNAPPRP  0.367
67. RRIRWRPPRLPRPRPRPAWVPRP  0.378
68. RRIRWRPPRLPRPRPRPRQIPRP  0.459
69. RRIRWRPPRLPRPRPRPQRKPRP  0.46
70. RRIRWRPPRLPRPRPRPEHEPRP  0.623
71. RRIRDRPPRLPRPRPRPVWGPRP  0.67
72. RRIRWRPPRLPRPRPRPLVTPRP  0.687
73. RRIRRRPPRLPRPRPRPENDPRP  0.785
74. RRIRGRPPRLPRPRPRPGPRPRP  1.1
75. RRIRMRPPRLPRPRPRPCMTPRP  1.65
